From the supplement of paper PMC12764529 come the findings set out here.

± gives the half width of the 95% confidence interval.

The nature of data set [1]: folding stability dG unfold (combined trypsin and chymotrypsin); higher = more stable. The procedure, abridged: (§1)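 Only designs with AlphaFold2 dimer inter-PAE above 15 were retained; each was a mini-protein under 80 residues with no cysteine, in a PA-tagged cDNA display construct. After digestion with trypsin and chymotrypsin and sequencing, K50 was inferred by Bayesian fitting of counts, and unfolding free energy was derived per protease or combined against a sequence-predicted unfolded-state K50 and a shared folded-state K50.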

Data set [2] in a line: folding stability dG unfold from trypsin proteolysis; higher = more stable. The procedure, abridged: as §1
Data set [3] in a line: folding stability dG unfold from chymotrypsin proteolysis; higher = more stable. Summed up: as §1

For “SAMEIVIEFESPEEAEKAIKEYVEKKGLKAVEIKMEFEPKWVEEKTPTGVKVTKEKYVAKVTVVTSKELSAG [r14_773_JUSTAS]”, the “folding stability dG unfold” value was 1.28 ± 0.32 kcal/mol in data set [1], 0.457 ± 0.21 kcal/mol in data set [2] and 2.03 ± 0.095 kcal/mol in data set [3].
“SAMELSPEERAELLIEAVRRKLEEARKKGIPNKKVKVTIVLSEEEREALAKRIEEELKEEGYEVEIVPESAG [r14_908_TrROS_Hall]”: the “folding stability dG unfold” value stood at 2.29 ± 0.17 kcal/mol in data set [1], 2.17 ± 0.068 kcal/mol in data set [2] and 2.61 ± 0.13 kcal/mol in data set [3].
On the same counts, the results for “SAMEVKIEKVEVKDGTVRITVTVKVSEEQLEKVKELAEKLKEKGYEVKVVKVEKLEDGTIKVEIEVKPKSAG [r14_354_TrROS_Hall]” are 2.66 ± 0.92 kcal/mol, 2.7 ± 0.32 kcal/mol and 2.36 ± 0.17 kcal/mol.
The like results for “SAMIEIEAVFPPNVSLEEAVEAVKAEIESKGFEILEVKVEKLPNGEVLVRAVVKVKPEMPPEEIKKLAESAG [r14_110_TrMRF]” were, in that order, 2.07 ± 0.19 kcal/mol, 1.5 ± 0.06 kcal/mol and 2.44 ± 0.2 kcal/mol.
Consider “SAMIEIEIEVEEREDGRLIVRVRIRNKETGEEIELELEMSREEVEKLLEELKKLFPNLEIVEVEIRELPSAG [r14_969_TrROS_Hall]”, for which the results for the “folding stability dG unfold” value in data set [1], in data set [2] and in data set [3] were 3.98 ± 0.45 kcal/mol, 4 ± 0.15 kcal/mol and 3.29 ± 0.24 kcal/mol, respectively.
In the case of “SAMIEILSIEEFTRPDGKKLYKITLKTPDPEKVLEKLIELGVKPEIDPNNPDILIAVFPYEKIEEILKESAG [r14_777_TrMRF]”, the results for the “folding stability dG unfold” value in data set [1], in data set [2] and in data set [3] were 4.77 ± 0.31 kcal/mol, 3.12 ± 0.14 kcal/mol and 5.05 ± 0.23 kcal/mol, respectively.
Take “SAMIMIRVEYPNGKTWPIMIPLRTPDGDPTKEEVEEIAERIADEIAEEHGGDNVKIEIQVMPMPPEENPSAG [r14_378_TrROS]”: the results for the “folding stability dG unfold” value in data set [1], in data set [2] and in data set [3] were 1.82 ± 0.24 kcal/mol, 2.23 ± 0.081 kcal/mol and 1.5 ± 0.12 kcal/mol, respectively.
On to “SAMIVVEIEESRSPTSPERTVTVTVKKPDGTVVKTIPITVSGANPSATPEEVRALAEPIVEELVKKGLLSAG [r14_120_JUSTAS]”, for which the “folding stability dG unfold” value in data set [1] is 1.55 ± 0.13 kcal/mol; in data set [2], 1.44 ± 0.026 kcal/mol; in data set [3] it was 1.47 ± 0.045 kcal/mol.
Consider “SAMKAEVYILVYDKNGKLIAKIPIKAEEVLEDPEKFLETVKTVVEEFSGIGVKLKIYFPSTGKEVEIEASAG [r14_972_TrMRF]”, for which the “folding stability dG unfold” value in data set [1] was 3.6 ± 0.23 kcal/mol; in data set [2] it was 4.2 ± 0.65 kcal/mol; in data set [3], 3.35 ± 0.045 kcal/mol.
The like results for “SAMKEGEEYEPVEKKKITIKNKKTNKTIEIEVVRNKKTNKYIVKITTKDGKKIEIVVSKEELEKLLKKLSAG [r14_240_TrROS_Hall]” were, in that order, 3.01 ± 0.26 kcal/mol, 2.25 ± 0.19 kcal/mol and 3.08 ± 0.17 kcal/mol.
As for “SAMKETEIPDPVTGNTYTVIDFDDATVVIKNYPDSLTITIIPPPSNTSTTIPMKPGEEEKVLKELGIPPSAG [r14_4_JUSTAS]”, the “folding stability dG unfold” value in data set [1] came to 0.568 ± 0.16 kcal/mol; in data set [2], 0.591 ± 0.087 kcal/mol; in data set [3], 0.316 ± 0.23 kcal/mol.
With “SAMKIEIIEEKEGEIIIKIEATKEEVEELAEELKKKFPGVEVEVEYDKETKKVYIRIKFKKKPSEEELKSAG [r14_600_TrROS_Hall]”, the “folding stability dG unfold” value came to 3.82 ± 0.31 kcal/mol in data set [1], 3.05 ± 0.62 kcal/mol in data set [2] and 3.9 ± 0.33 kcal/mol in data set [3].
“SAMKITDVTVERNPDNGWYEVMVTFEFDNGPVTVKIWMPRDGNMPIDVYDMGNGEPKGEIWIPADQIKFSAG [r14_608_TrROS]”: the “folding stability dG unfold” value in data set [1] turned out to be 1.15 ± 0.075 kcal/mol; in data set [2], 0.893 ± 0.022 kcal/mol; in data set [3], 1.35 ± 0.1 kcal/mol.
With “SAMKITIEEVEVKEGDTVTIRIDASEEELENFLKELAEKLGAEVVEVEVKKNENGSLEVTVKVKEVKKPSAG [r14_655_TrROS_Hall]”, the results for the “folding stability dG unfold” value in data set [1], in data set [2] and in data set [3] were 1.04 ± 0.17 kcal/mol, 1.2 ± 0.11 kcal/mol and 0.476 ± 0.13 kcal/mol, respectively.
